Data taken from the supplement of paper PMC10567573.
± gives the standard deviation.

Assay: protein stability index of a GFP-peptide fusion (GPS, HEK-293T) (PSI 1-6); higher = more stable
[1] = treatment: DMSO, c terminus: a fixed tail appended
[2] = treatment: MLN4924 1 uM, 8 h, c terminus: a fixed tail appended
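Further: 24-mer peptide tiles fused after GFP, lentivirally expressed, FACS-sorted into six equal bins by GFP/DsRed ratio, decoded by Illumina sequencing, PSI is the read-weighted mean bin number.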

Row | Sequence | protein stability index [1] | protein stability index [2] | protein stability index (treatment: DMSO, c terminus: native) | protein stability index (treatment: MLN4924 1 uM, 8 h, c terminus: native)
1 | ELGLLIFFLFIGVILFSSAVYFAE [KCNA1] | 2.04 ± 0.53 | 2.06 ± 0.37 | – | –
2 | NARAQQRAAAQQRRSFLNAHHRSG [GNAS] | 4.28 ± 0.32 | 4.36 ± 0.14 | – | –
3 | KQSLVVAVQDHGQPPLSATVTLTV [PCDHGA10] | 2.72 ± 0.59 | 2.68 ± 0.45 | – | –
4 | NHLLESMPLREGSSFQDLLGDALA [HES6] | 3.34 ± 0.31 | 3.4 ± 0.31 | – | –
5 | YPSVILRDPLQTDTLQNDYFAIKQ [ETS1] | 3.1 ± 0.41 | 3.3 ± 0.21 | – | –
6 | AQEALREKAAALERQLKVMASDHR [LRRC45] | 4.26 ± 0.27 | 4.29 ± 0.23 | – | –
7 | GYGGGFSSSSSFGSGFGGGYGGGL [KRT16] | 2.47 ± 0.33 | 2.57 ± 0.14 | – | –
8 | RFFASSSLHHTSECTQMDHLGCMH [ALDH8A1] | 2.87 ± 0.22 | 2.85 ± 0.32 | – | –
9 | QVEALAAAGVDHVILAVSYMSQVL [GMPPB] | 2.92 ± 0.65 | 2.48 ± 0.45 | – | –
10 | SRSAAQDLDRMGVMTLPSDLRKHR [PPFIA4] | 4.54 ± 0.48 | 5.22 ± 0.1 | – | –
11 | QPWVEVVLALRNMKNLLFSEMWDI [MFSD9] | 2.78 ± 0.66 | 2.44 ± 0.44 | – | –
12 | LEEEEEEEDLVLTCEDDEDEELGG [ZBTB22] | 5.57 ± 0.2 | 5.56 ± 0.18 | – | –
13 | IGCKKPVSASGKEMDWAQMACHRC [SMG5] | 3.04 ± 0.34 | 3.48 ± 0.28 | – | –
14 | TPSEEHMKNKNNVTEFILLGLTQN [OR4A15] | 3.26 ± 0.33 | 3.21 ± 0.21 | – | –
15 | LVKDNPQRSYFLRIFDIKDGKLLW [WASL] | 1.99 ± 0.28 | 2.05 ± 0.36 | – | –
16 | RTRTATMLCAASGNPDPEITWFKD [PTPRD] | 3.64 ± 0.15 | 3.72 ± 0.35 | – | –
17 | LCEPDPVHFSEAIEKFIREPSLKA [ALG2] | 3.81 ± 0.19 | 3.91 ± 0.19 | – | –
18 | RRLPLAFRDATSAPLRKLSVDLIK [DYRK1B] | 2.46 ± 0.39 | 2.45 ± 0.26 | – | –
19 | NCLPKHLLHSVNQRFGSNNTSGS [KLHDC2] | – | – | 2.69 ± 0.33 | 2.99 ± 0.28
20 | QVVSQGWKYFKGNFYYFSLIPKTW [CD207] | 2.14 ± 0.41 | 2.1 ± 0.39 | – | –

Row | Sequence | protein stability index [1] | protein stability index [2] | protein stability index (treatment: DMSO, c terminus: native) | protein stability index (treatment: MLN4924 1 uM, 8 h, c terminus: native)
21 | QQGLGASYRTESAQRQACMYASSA [TBX5] | 3.8 ± 0.17 | 3.82 ± 0.2 | – | –
22 | ETRDWGGAQFEGEKGRALQIRDWR [ZSWIM9] | 3.63 ± 0.32 | 3.84 ± 0.15 | – | –
23 | IQSLTCEVDGLRGTNEALLRQLRE [PRPH] | 3.74 ± 0.4 | 3.96 ± 0.24 | – | –
24 | LDSRSTDRVLQWERIDCQGIPPSS [KLHDC2] | 4.09 ± 0.29 | 3.98 ± 0.24 | – | –
25 | PVVSAVWGHCEVTMRYINGLDPEP [SPSB4] | 2.28 ± 0.23 | 2.54 ± 0.53 | – | –
26 | LILFAWGTLLFYIGGHLVRDNDHP [FUT8] | 2.95 ± 0.19 | 3.36 ± 0.47 | – | –
27 | RFFIDFPHIEEQQKKIESYLHNHF [TENT5D] | 2.13 ± 0.38 | 2.35 ± 0.18 | – | –
28 | RWSLISLSNKNGKNVELKFVDSIR [TENT5C] | 2.39 ± 0.26 | 2.36 ± 0.44 | – | –
29 | AAVVTSPPPTTAPHKERYFDRVDE [ADD1] | 4.77 ± 0.44 | 4.73 ± 0.34 | – | –
30 | RSLNVFVKDDDRLTFHRHPVAQST [SPSB4] | 3.51 ± 0.3 | 3.62 ± 0.29 | – | –
31 | FFFSSPGNNNGTSIEDGQIPEIIF [BTBD1] | 2.39 ± 0.22 | 2.44 ± 0.33 | – | –
32 | DERRRLLEQKTQESQKKKQQDDSD [ZNF207] | 5.54 ± 0.33 | 5.53 ± 0.25 | – | –
33 | ILAAACESETRKAAKRMRLEIYQS [NOL4L] | 2.47 ± 0.24 | 2.54 ± 0.05 | – | –
34 | GAGDVVLLQRELAQEDSLNKLALQ [LYSMD4] | 4.29 ± 0.29 | 4.01 ± 0.5 | – | –
35 | PDFYKQSSPNLQVSSDGTLKYMEV [PCDHGC5] | 3.4 ± 0.16 | 3.39 ± 0.45 | – | –
36 | PGLSQGPGKETLESALIALDSEKP [EHMT1] | 5.33 ± 0.28 | 5.31 ± 0.18 | – | –
37 | SSPMVQVDEKGEKVRPSHKRCIVI [LARP4] | 2.69 ± 0.16 | 2.63 ± 0.12 | – | –
38 | WVYSGRRGVHCWVCDESVRKLSSA [PRIM1] | 2.51 ± 0.84 | 3.04 ± 0.39 | – | –
39 | MAYDQFLAICRPLTYSTRMSQTVQ [OR3A1] | 2.25 ± 0.33 | 2.21 ± 0.29 | – | –
